Data from patent publication US20210046160A1, “Immuno Oncology Combination Therapies With IL-2 Conjugates” (Synthorx, Inc., priority 2019, published 2021).

Experiments:
Test in all cases: cell-based or functional assay
[1] = target: IL-2 receptor αβγ on recombinant human U2OS cells further engineered to express the IL-2Rα subunit (PathHunter IL-2 Cytokine Receptor assay) (UniProt P01589)
[2] = target: IL-2βγ receptor complex on recombinant human U2OS cells (PathHunter IL-2 Cytokine Receptor assay) (UniProt P14784)
[3] = target: IL-2 receptor signaling complexes on human primary CD8+ T cells and NK cells (human) (UniProt P14784)
[4] = target: IL-2 receptor signaling complexes on human primary Treg cells (IL-2 Rα expressing) (human) (UniProt P01589)
Chain of IL-2 receptor signaling complexes on human primary Treg cells (IL-2 Rα expressing) (human) (P01589 22-272, chain 1 of 3): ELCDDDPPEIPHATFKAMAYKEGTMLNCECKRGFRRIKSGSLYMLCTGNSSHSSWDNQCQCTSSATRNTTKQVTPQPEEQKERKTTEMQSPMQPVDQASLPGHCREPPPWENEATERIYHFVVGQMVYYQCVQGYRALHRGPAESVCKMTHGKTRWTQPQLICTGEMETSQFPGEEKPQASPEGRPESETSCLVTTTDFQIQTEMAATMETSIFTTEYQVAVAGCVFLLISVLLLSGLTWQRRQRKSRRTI
Chain of IL-2 receptor signaling complexes on human primary Treg cells (IL-2 Rα expressing) (human) (P14784 27-551, chain 2 of 3, further chain): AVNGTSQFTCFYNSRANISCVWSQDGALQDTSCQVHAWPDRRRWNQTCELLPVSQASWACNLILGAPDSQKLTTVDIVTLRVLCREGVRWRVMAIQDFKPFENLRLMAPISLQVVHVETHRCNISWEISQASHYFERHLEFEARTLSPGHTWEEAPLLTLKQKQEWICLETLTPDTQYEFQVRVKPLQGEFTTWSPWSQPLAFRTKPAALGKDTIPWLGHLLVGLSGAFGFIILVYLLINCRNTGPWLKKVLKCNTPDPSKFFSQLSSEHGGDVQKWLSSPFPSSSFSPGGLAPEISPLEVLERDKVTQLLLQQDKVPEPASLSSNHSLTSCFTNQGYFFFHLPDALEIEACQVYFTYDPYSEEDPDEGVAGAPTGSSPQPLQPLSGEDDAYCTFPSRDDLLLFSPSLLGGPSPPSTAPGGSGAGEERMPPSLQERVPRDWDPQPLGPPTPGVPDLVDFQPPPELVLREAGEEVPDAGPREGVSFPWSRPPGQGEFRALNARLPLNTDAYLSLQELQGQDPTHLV
Chain of IL-2 receptor signaling complexes on human primary Treg cells (IL-2 Rα expressing) (human) (P31785 23-369, chain 3 of 3, further chain): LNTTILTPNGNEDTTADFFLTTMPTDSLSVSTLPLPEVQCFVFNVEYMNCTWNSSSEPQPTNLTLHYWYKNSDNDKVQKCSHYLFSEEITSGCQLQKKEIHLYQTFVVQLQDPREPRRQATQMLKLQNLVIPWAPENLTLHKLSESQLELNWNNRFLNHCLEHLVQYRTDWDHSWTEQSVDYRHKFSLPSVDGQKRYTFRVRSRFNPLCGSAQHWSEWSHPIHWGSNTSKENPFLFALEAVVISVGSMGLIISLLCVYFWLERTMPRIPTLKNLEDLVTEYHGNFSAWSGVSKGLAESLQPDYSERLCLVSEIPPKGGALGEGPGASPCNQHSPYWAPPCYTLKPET

Chain of F42_30kD (P60568 other isoform, or with tags, fused parts or gaps limits assumed): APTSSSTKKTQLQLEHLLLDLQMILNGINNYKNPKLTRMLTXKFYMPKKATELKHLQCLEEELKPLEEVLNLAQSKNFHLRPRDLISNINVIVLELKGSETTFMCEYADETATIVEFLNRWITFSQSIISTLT
Chain of K43_30kD (P60568 other isoform, or with tags, fused parts or gaps limits assumed): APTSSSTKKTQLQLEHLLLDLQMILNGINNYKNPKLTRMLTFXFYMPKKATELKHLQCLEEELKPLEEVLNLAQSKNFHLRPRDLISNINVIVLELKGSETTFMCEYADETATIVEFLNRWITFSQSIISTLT
Chain of IL-2 receptor signaling complexes on human primary CD8+ T cells and NK cells (human) (P14784 27-551, chain 1 of 2): as the sequence (P14784 27-551, chain 2 of 3, further chain) above
Chain of IL-2 receptor signaling complexes on human primary CD8+ T cells and NK cells (human) (P31785 23-369, chain 2 of 2, further chain): as the sequence (P31785 23-369, chain 3 of 3, further chain) above
Chain of K35 (10 kD PEGylated IL-2 conjugate, Table 2) (P60568 other isoform, or with tags, fused parts or gaps limits assumed): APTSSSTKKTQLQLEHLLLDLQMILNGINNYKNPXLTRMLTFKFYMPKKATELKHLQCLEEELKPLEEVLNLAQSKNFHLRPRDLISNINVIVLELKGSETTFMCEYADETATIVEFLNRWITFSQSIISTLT

Row | Substance | EC50 (nM), PathHunter IL-2 Cytokine Receptor assay, αβγ [1] | EC50 (nM), PathHunter IL-2 Cytokine Receptor assay, βγ [2] | EC50 for pSTAT5 signaling; CD8+ T Cells [3] | EC50 for pSTAT5 signaling; NK Cells [3] | EC50 for pSTAT5 signaling; Treg Cells [4]
1 | F42 (10 kD PEGylated IL-2 conjugate, Table 2) (from UniProt P60568 21-153) (ligand) | 0.515 nM | 6.09 nM | – | – | –
2 | F42_30kD (from UniProt P60568 21-153) (ligand) | – | – | 108000 pg/mL | 16400 pg/mL | 36900 pg/mL
3 | K35 (10 kD PEGylated IL-2 conjugate, Table 2) (from UniProt P60568 21-153) (ligand) | – | 6.75 nM | – | – | –
4 | K43 (10 kD PEGylated IL-2 conjugate, Table 2) (from UniProt P60568 21-153) (ligand) | 0.131 nM | 9.84 nM | – | – | –
5 | K43_30kD (from UniProt P60568 21-153) (ligand) | – | – | 50500 pg/mL | 9000 pg/mL | 4800 pg/mL
6 | R38 (10 kD PEGylated IL-2 conjugate, Table 2) (from UniProt P60568 21-153) (ligand) | 0.165 nM | 4.16 nM | – | – | –
7 | T41 (10 kD PEGylated IL-2 conjugate, Table 2) (from UniProt P60568 21-153) (ligand) | 0.0489 nM | 6.37 nM | – | – | –
8 | V69* (30 kD PEGylated IL-2 conjugate, Table 2) (from UniProt P60568 21-153) (ligand) | 0.083 nM | 9.99 nM | – | – | –
9 | Y45* (30 kD PEGylated IL-2 conjugate, Table 2) (from UniProt P60568 21-153) (ligand) | 0.11 nM | 9.06 nM | – | – | –
